Results from article PMC2572730, “Structural Basis for the Recognition of Histone H4 by the Histone-Chaperone RbAp46” (Structure(London, England:1993), 2008).

Target: histone H3 (Xenopus laevis, recombinant full length) (Xenopus laevis) (UniProt P84233)
Assay: cross-linking; BS3 crosslinker in 1.1 M NaCl, 20 mM HEPES (pH 7.5), 10 mM DTT; ~10 uM RbAp46, H3/H4 or RbAp46/H3/H4; room temperature, 30 min; NuPAGE, Coomassie and blots with anti-H3 and anti-H4

## histone H3 (Xenopus laevis, recombinant full length) (from UniProt P84233 1-136) (natural protein)
  stoichiometry N: 2
